These results are taken from patent US20230051715A1 (MABWELL THERAPEUTICS, published 2023).

Test [1] concerns the target T1, human C1s mutant M11 (S349P) (human, UniProt P09871 16-688).
T1 construct: The entry is the mutant itself
T1 sequence: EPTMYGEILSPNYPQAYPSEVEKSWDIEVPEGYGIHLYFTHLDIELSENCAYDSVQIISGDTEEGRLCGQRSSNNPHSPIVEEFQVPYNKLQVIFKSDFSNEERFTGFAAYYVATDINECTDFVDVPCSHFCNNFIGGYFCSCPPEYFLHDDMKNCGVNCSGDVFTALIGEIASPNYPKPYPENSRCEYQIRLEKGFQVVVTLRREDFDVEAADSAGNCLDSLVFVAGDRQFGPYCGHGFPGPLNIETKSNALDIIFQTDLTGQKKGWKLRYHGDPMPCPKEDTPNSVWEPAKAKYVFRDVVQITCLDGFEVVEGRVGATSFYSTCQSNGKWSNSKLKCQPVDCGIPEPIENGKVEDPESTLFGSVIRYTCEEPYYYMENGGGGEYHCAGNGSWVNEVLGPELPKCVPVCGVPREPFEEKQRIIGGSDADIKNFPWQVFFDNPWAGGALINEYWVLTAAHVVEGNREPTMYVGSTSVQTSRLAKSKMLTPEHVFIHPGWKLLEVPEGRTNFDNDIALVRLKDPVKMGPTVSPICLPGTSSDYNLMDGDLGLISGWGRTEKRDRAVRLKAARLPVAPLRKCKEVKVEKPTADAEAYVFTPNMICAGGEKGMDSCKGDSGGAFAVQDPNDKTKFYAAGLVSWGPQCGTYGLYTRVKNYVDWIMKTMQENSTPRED
Briefly: ELISA, plate coated with human C1s mutant M11: S349P, OD450nm. The procedure:
(§1) ELISA was carried out by first coating 96-well plates with 200 ng/well of full-length or truncated C1s proteins overnight. The next morning, plates were blocked with SuperBlock T20 blocking buffer (Thermo Scientific 37536) for 1 h with gentle shaking. Then, various concentrations of anti-C1s antibodies diluted in SuperBlock T20 blocking buffer were added to the plates and incubated for 1 h with gentle shaking. Mouse IgG (Sigma-Aldrich 15381) and human IgG1 (BioXCell BP0297) were used as negative controls. The plates were washed before incubating with HRP conjugated secondary antibodies diluted in SuperBlock T20 blocking buffer (goat anti-mouse IgG (H+L) cross-adsorbed secondary antibody HRP (Invitrogen G-21040) or goat anti-human IgG antibody, HRP conjugate (Millipore AP309P)) for 1 h with gentle shaking. At last, the plates were washed and color developed with ELISA liquid HRP substrate (Sigma-Aldrich), followed by stopping the reaction with addition of 1M H₂SO₄ in the same volume as the ELISA liquid substrate. Bound antibody was measured by absorbance at OD₄₅₀ₙₘ.
(§2) Binding of anti-C1s antibodies to mutants M1-M20 of human C1s was measured by ELISA as described in Example 4, and results are shown in FIGS. 6B-6U. All anti-C1s humanized variants including hz2-7(H1L2), hz2-8(H1L2 G80A) and hz2-8(H1L2 G80A/T82A) maintained strong binding properties to the majority (16 out of 20) of C1s mutants including M1 (FIG. 6B), M2 (FIG. 6C), M3 (FIG. 6D). M4 (FIG. 6E), M7 (FIG. 6H), M8 (FIG. 6I), M10 (FIG. 6K), M11 (FIG. 6L), M12 (FIG. 6M), M13 (FIG. 6N), M15 (FIG. 6P), M16 (FIG. 6Q), M17 (FIG. 6R), M18 (FIG. 6S), M19 (FIG. 6T) and M20 (FIG. 6U).
In general terms: An ELISA detects its analyte on a solid surface through an enzyme-linked reagent.

Test [2] concerns the target T2, human C1s mutant M13 (A292D) (human, UniProt P09871 16-688).
T2 construct: The entry is the mutant itself
T2 sequence: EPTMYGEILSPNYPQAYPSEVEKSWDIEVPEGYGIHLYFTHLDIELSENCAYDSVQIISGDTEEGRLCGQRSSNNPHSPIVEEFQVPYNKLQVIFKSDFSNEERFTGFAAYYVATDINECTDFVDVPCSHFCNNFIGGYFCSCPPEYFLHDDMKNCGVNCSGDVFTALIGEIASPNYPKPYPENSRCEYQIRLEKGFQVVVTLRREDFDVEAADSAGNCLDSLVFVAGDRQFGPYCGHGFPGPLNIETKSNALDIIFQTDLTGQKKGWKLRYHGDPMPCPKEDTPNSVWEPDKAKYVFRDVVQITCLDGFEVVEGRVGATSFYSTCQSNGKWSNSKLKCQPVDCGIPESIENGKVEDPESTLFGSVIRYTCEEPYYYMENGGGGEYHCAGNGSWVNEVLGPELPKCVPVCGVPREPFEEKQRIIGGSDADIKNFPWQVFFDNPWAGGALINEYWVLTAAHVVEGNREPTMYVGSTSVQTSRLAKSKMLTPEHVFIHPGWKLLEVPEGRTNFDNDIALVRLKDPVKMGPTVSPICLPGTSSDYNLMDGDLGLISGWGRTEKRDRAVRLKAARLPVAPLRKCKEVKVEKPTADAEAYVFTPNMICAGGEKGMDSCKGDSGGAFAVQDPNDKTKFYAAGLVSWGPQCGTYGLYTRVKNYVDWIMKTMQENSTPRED
Briefly: ELISA, plate coated with human C1s mutant M13: A292D, OD450nm. The procedure:
as §1, §2

Test [3] has as its target T3, human C1s mutant M19 (Q303K) (human, UniProt P09871 16-688).
T3 construct: The entry is the mutant itself
T3 sequence: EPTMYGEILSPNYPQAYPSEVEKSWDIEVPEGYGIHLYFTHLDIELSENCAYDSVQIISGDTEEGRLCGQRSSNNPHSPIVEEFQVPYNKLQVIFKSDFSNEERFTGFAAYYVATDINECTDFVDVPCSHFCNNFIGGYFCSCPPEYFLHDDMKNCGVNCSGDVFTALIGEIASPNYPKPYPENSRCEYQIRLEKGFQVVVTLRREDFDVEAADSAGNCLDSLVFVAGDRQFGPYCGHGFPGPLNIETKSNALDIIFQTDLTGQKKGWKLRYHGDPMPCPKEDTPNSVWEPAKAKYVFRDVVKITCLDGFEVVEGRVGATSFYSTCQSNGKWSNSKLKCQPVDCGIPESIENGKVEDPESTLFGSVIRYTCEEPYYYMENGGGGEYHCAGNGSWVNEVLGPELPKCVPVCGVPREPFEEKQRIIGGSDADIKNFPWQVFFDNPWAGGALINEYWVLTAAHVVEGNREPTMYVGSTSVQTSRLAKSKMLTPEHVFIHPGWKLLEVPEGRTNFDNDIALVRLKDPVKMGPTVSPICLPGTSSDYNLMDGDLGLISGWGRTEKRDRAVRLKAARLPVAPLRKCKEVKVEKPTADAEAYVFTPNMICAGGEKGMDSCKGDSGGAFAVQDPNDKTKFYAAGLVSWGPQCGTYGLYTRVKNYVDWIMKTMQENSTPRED
Briefly: ELISA, plate coated with human C1s mutant M19: Q303K, OD450nm. How it is done: as §1, §2

B1: Anti-C1s antibody hz2-8 (H1L2 G80A) (antibody, V domains shown)
VH: QVQLVQSGAEVKKPGASVKVSCKASGFNIKEYYMHWVRQAPEQGLEWMGWIDPENADTIYAQKFQGRVTITADTSTNTAYMELSSLRSEDTAVYYCARSRLFFAYWGQGTLVTVSS
VL: DIQMTQSPKSLSASVGDRVTITCRASQDVRTALDWYQQKPGQSPKLLIYSASYRYSGVPSRFSGSGSGTDFTLTISSLQPEDFATYYCQQQYTTPYTFGQGTKLEIKR
notes: Humanized variant with G80A in HC CDR2 (already in the entry), human IgG1 / kappa
Broadly, the EC50 is the midpoint of the concentration-response curve. A higher EC50 goes with weaker potency. As for B1, the EC50 in test [1] came out at 4 ng/mL; in test [2] it was 6 ng/mL; in test [3], 1 ng/mL.

B2: Anti-C1s antibody hz2-8 (H1L2 G80A/T82A) (antibody, V domains shown)
VH: QVQLVQSGAEVKKPGASVKVSCKASGFNIKEYYMHWVRQAPEQGLEWMGWIDPENADAIYAQKFQGRVTITADTSTNTAYMELSSLRSEDTAVYYCARSRLFFAYWGQGTLVTVSS
VL: DIQMTQSPKSLSASVGDRVTITCRASQDVRTALDWYQQKPGQSPKLLIYSASYRYSGVPSRFSGSGSGTDFTLTISSLQPEDFATYYCQQQYTTPYTFGQGTKLEIKR
notes: Humanized variant with G80A and T82A in HC CDR2 (already in the entry), human IgG1 / kappa
With B2, the EC50 is 5 ng/mL in test [1], 9 ng/mL in test [2] and 1 ng/mL in test [3].

B3: Anti-C1s antibody hz2-7(H1L2) (antibody, V domains shown)
VH: EVQLLESGGGLVQPGGSLRLSCAASGFTFSNYFMNWVRQAPGKGLEWVSEIRLKFTNYATHYADSVKGRFTISRDDSKSTLYLQMNSLRAEDTAVYYCTRDYGSRNGYFDYWGQGTLVTVSS
VL: DIVMTQTPLSLPVTPGEPASISCRSSKSLLHSNGNTFLYWFLQKPGQSPQLLIYRMSNLASGVPDRFSGSGSGTDFTLKISRVEAEDVGVYYCMQHLEYPYTFGGGTKLEIKR
notes: Humanized, human IgG1 / kappa; also called hz2-7(1L2)
Regarding B3, the EC50 in test [1] stood at 5 ng/mL; in test [2], 5 ng/mL; in test [3], 2 ng/mL.
